# Measured values reported in patent publication US20240376190A1 (Chugai, published 2024).
# B1: Anti-KLH antibody IC17dK-SG181 (antibody, human IgG1, kappa, V domains shown)
# VH: QVQLQQSGPQLVRPGASVKISCKASGYSFTSYWMHWVNQRPGQGLEWIGMIDPSYSETRLNQKFKDKATLTVDKSSSTAYMQLSSPTSEDSAVYYCALYGNYFDYWGQGTTLTVSS
# VL: DIQMTQSSSSFSVSLGDRVTITCKASEDIYNRLAWYQQKPGNAPRLLISGATSLETGVPSRFSGSGSGKDYTLSITSLQTEDVATYYCQQYWSTPYTFGGGTKLEVKR
# notes: Anti-KLH antibody with a human IgG1 Fc region, used as negative control; also called negative control antibody
# Experiments:
# [1] = molecular target: T1, human cell surface latent TGF-beta 1 expressed on FreeStyle 293-F cells (human, UniProt P01137 30-390); test: flow cytometry (FACS) on FreeStyle 293-F cells, PE anti-human IgG secondary
# T1 construct: whole, on cells; also called human latent TGF-beta 1
# Method: (§1) The anti-latent TGF-beta 1 antibodies (10 microgram/mL each) were incubated with each cell line for 30 minutes at 4 degree C. and washed with FACS buffer (2% PBS, 2 mM EDTA in PBS). […] Data acquisition was performed on an FACS Verse (Becton Dickinson), followed by analysis and calculation of Mean Fluorescence Intensity (MFI), using FlowJo (trademark) software (Tree Star) and GraphPad Prism software (GraphPad).
# [2] = molecular target: T2, mouse cell surface latent TGF-beta 1 expressed on Ba/F3 cells (mouse, UniProt P04202 30-390); test: flow cytometry (FACS) on BaF3 cells, PE anti-human IgG secondary
# T2 construct: whole, on cells; also called mouse latent TGF-beta 1
# T2 sequence (P04202 30-390): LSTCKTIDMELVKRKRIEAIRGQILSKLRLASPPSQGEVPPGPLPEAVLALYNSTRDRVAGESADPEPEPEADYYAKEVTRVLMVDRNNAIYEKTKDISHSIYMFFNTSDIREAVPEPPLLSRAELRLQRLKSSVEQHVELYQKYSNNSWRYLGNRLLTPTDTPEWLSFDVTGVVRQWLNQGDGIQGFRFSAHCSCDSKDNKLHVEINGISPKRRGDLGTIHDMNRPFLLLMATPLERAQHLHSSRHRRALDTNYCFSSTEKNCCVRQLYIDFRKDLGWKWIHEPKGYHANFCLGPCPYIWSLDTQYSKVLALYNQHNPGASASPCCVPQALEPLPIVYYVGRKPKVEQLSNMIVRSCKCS
# Method: as §1
binder,measurement,setting,value
B1,binding result,[1],no binding (tested: 10 microgram/mL)
same,binding result,[2],no binding (tested: 10 microgram/mL)
